Target: the molecule itself
Test: AUC

B1: βB1-crystallin (natural protein, human, UniProt P53674 1-252, looked up)
chain: MSQAAKASASATVAVNPGPDTKGKGAPPAGTSPSPGTTLAPTTVPITSAKAAELPPGNYRLVVFELENFQGRRAEFSGECSNLADRGFDRVRSIIVSAGPWVAFEQSNFRGEMFILEKGEYPRWNTWSSSYRSDRLMSFRPIKMDAQEHKISLFEGANFKGNTIEIQGDDAPSLWVYGFSDRVGSVKVSSGTWVGYQYPGYRGYQYLLEPGDFRHWNEWGAFQPQMQSLRRLRDKQWHLEGSFPVLATEPPK
- stoichiometry N: 2

Reference: publication PMC4182932 (Current protocols in protein science / editorial board, …, 2014)
